The values below are quoted from earlier work in PMC9697831.

One may read the Kd as the equilibrium constant for the complex coming apart.

The target in data set [1] is Kv1.3 (Homo sapiens) (UniProt P22001).
The target is the same in data set [2]. The source holds these as a separate data set.

Where two headings read alike, the source gives them in different places.

Kv1.3 (Homo sapiens), sequence (P22001 whole entry): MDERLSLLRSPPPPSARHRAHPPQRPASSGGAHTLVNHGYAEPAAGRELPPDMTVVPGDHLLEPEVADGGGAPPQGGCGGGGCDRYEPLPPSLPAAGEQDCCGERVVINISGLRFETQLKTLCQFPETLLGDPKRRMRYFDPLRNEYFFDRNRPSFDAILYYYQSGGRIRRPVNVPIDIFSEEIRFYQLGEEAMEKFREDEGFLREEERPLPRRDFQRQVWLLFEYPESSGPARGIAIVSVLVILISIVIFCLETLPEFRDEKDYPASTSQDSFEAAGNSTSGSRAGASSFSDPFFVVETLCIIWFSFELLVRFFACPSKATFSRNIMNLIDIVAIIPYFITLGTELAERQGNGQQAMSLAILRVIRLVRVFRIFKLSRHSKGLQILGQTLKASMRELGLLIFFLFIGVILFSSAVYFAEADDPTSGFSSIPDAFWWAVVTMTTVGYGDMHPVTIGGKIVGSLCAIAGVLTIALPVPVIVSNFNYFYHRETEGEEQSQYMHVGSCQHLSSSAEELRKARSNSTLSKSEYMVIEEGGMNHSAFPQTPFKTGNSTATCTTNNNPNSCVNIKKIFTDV
Anuroctoxin, sequence (P0C166 whole entry): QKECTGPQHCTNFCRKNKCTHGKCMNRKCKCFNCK
Ts6, sequence (P59936 23-62): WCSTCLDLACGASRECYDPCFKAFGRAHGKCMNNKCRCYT

Take Ts6 (from UniProt P59936): the dissociation constant (Kd) with Kv1.3 (Homo sapiens) [1] is 0.55 nM. With Anuroctoxin (from UniProt P0C166), in the data set with Kv1.3 (Homo sapiens) [2], the dissociation constant (Kd) is 0.73 nM.
